# PMC6770577, “TRPM6 N-Terminal CaM- and S100A1-Binding Domains” (International Journal of Molecular Sciences, 2019)
# Target: T1, S100A1 (Homo sapiens), P23297
# T1 chain: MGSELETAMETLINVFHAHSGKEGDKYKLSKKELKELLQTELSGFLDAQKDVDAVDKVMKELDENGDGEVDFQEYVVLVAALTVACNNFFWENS
# Test: steady-state fluorescence anisotropy
# Conditions: modification not given
binder,measurement,value
"LIGRAYASNYTAAHFA [TRPM6np K532A/R531A/R535A/R526A 520-535, Q9BX84]",Kd,130 µM
"LIGRAYRSNYTAAHFA [TRPM6np K532A/R531A/R535A 520-535, Q9BX84]",Kd,81.8 µM
"LIGRAYRSNYTAAHFR [TRPM6np K532A/R531A 520-535, Q9BX84]",Kd,50.2 µM
"LIGRAYRSNYTRAHFR [TRPM6np K532A 520-535, Q9BX84]",Kd,24.8 µM
